The text below walks through data of the nanobody polyreactivity screen of Harvey et al. (2022).

The nature of the data set: yeast display, Sf9 membrane polyspecificity reagent, FACS + sequencing; frameworks hold sequencing errors. In outline: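 In a synthetic yeast display library (Saccharomyces cerevisiae BJ5465), nanobody expression was induced with galactose for 36–48 hours. FACS gates were set low and high (top ~1%) using anti-HA fluorescence for expression and streptavidin fluorescence for binding of the Sf9 membrane reagent. Each polyreactivity label is drawn from the gate of origin.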
On to “QVQLVESGGGLVQAGGSLRLSCAASGSTFSIYAMGGDRQAPGKERELVAAITRRSGSTYYADSVKGRFTISRDNAKNTVSLQMNSLKPEDTAVYYCAADTWRTDYTSSYYKNRDSWGQGTQVTVSS”, for which the “polyreactivity (PSR sort gate)” value is reported as “high polyreactivity”.

“QVQLVESGGGLVQAGGSLRLSCAASGSTFSIYTMGWYRQAPGKERELVAAITRGGSTYYADSVKGRFTISRDNAKNTVYLQMNSLKPEDTAVYYCAADYVSYYRGGRYIELDYWGQGTQVTVSS”: the “polyreactivity (PSR sort gate)” value was “low polyreactivity”.

Consider “QVQLVESGGGLVQAGGSLRLSCAASGSTFSKYTMGWYRQAPGKERELVAAISRSGGRTYYADSVKGRFTISRDNAKNTVYLQMNSLKPEDTAVYYCATVVYVFGYSSPMYYWGQGTQVTVSS”, for which the “polyreactivity (PSR sort gate)” value was “high polyreactivity”.

As to “QVQLVESGGGLVQAGGSLRLSCAASGSTFSLNAMGWYRQAPGKERELVAAISGSGGSTYYADSVKGRFTISRDNAKHTVYLQMNSLKPEDTAVYYCNKYYYPLRKSFGYWGQGTQVTVSS”, the “polyreactivity (PSR sort gate)” value is on record as “high polyreactivity”.

Take “QVQLVESGGGLVQAGGSLRLSCAASGSTFSLYAMGWYRQAPGKERELVAAISSSGGSTYYADYVKGRFTISRDNAKNTVYLQMNSLKPEDTAVYYCAAYRVGSYDYWGQGTQVTVSS”: the “polyreactivity (PSR sort gate)” value is listed as “high polyreactivity”.

Take “QVQLVESGGGLVQAGGSLRLSCAASGSTFSLYAMGWYRQAPGKERELVAAITYSGTSTYYADSVKGRFTISRDNAKNTVYLQMNSLKPEDTAVYYCNVESWGGHDFTWAVTSGGYWGQGTQVTVSS”: the “polyreactivity (PSR sort gate)” value is on record as “low polyreactivity”.

On to “QVQLVESGGGLVQAGGSLRLSCAASGSTFSLYAMGWYRQAPGKERELVASITWGGGSTYADSVKGRFTISRDNAKNTVYLQMNSLKPEDTAVYYCARKYRYRVLYDFAYDHWGQGTQVTVSS”, for which the “polyreactivity (PSR sort gate)” value is “low polyreactivity”.

Regarding “QVQLVESGGGLVQAGGSLRLSCAASGSTFSNVMGWYRQAPGKEREFVARISKSGGSTYYADSVKGRFTISRDNAKNSVYLQMNSLKPEDTAVYYCATGRFRRTEYGGRYDYWGQGTKVTVSS”, the “polyreactivity (PSR sort gate)” value is reported as “high polyreactivity”.

Regarding “QVQLVESGGGLVQAGGSLRLSCAASGSTFSNYALGWYRPAPGKERELVAAITGRGGRTYYADSVKGRFTISRDNAKNTVYLQMNSLKPEDTAVYYCNADYWSRMDYWGQGTQVTVSS”, the “polyreactivity (PSR sort gate)” value was “high polyreactivity”.

For the sequence “QVQLVESGGGLVQAGGSLRLSCAASGSTFSNYAMGWYRQAPGKERELVAAISRRGTSTYYADSVKGRFTISRDNAKNTVYLQMNSLKPEDTAVYYCAADYFRYTYDYWGQGTQVTVSS”, the “polyreactivity (PSR sort gate)” value is recorded as “high polyreactivity”.

For the sequence “QVQLVESGGGLVQAGGSLRLSCAASGSTFSNYAMGWYRQAPGKERELVAVITRGASTYYADSVKGRFTISRDNAKNTVYLPMNSLKPEDTAVFYCNVPIRGQLVHTYPYDYWGQGTQVTVSS”, the “polyreactivity (PSR sort gate)” value is listed as “high polyreactivity”.

For the sequence “QVQLVESGGGLVQAGGSLRLSCAASGSTFSPNARGWYRQAPGKERELVAAITYRGANTYYADSVKGRFTISRDNAKNTVYLQMNSLKPEDTAVYYCAAENWIGAYYWGQGTQVTVSS”, the “polyreactivity (PSR sort gate)” value is reported as “low polyreactivity”.

Consider “QVQLVESGGGLVQAGGSLRLSCAASGSTFSPNVMGWYRQAPGKERELVAAISSSTGSTNYADSVKGRFTISRDNAKNTVYLQMNSLKPEDTAVYYCAVDPYVHWTTKLYDYWGQGTQVTVSS”, for which the “polyreactivity (PSR sort gate)” value is recorded as “low polyreactivity”.

Take “QVQLVESGGGLVQAGGSLRLSCAASGSTFSPYAMGWYRQAPGKERELVAAISSSGGSTYYADSVKGRFTISRDNAKNTVYLQMNSLKPEDTAVYYCRSFTSAQTLDYWGQGTQVTVSS”: the “polyreactivity (PSR sort gate)” value is “high polyreactivity”.

Consider “QVQLVESGGGLVQAGGSLRLSCAASGSTFSPYAMGWYRQAPGKERELVAGITGNGGSTRYADSVKGRFTISRDNAKNTVYLQMNSLKPEDTAVYYCAARWTRQRYRTSYYSWGQGTQVTVSS”, for which the “polyreactivity (PSR sort gate)” value is recorded as “high polyreactivity”.

Consider “QVQLVESGGGLVQAGGSLRLSCAASGSTFSQNAMGWYRQAPGKERELVAVISSSGGRTNYADSVKGRFTISRDNAKNTVYLQMNSLKPEDTSVYYCAKRLRVLYYYWGQGTQVTVSS”, for which the “polyreactivity (PSR sort gate)” value was “high polyreactivity”.

For “QVQLVESGGGLVQAGGSLRLSCAASGSTFSRNAMGWYRPAPGKERELVAAISSSGGRTYYADSVKGRFTISRDNAKNTVYLQMNSLKPQDTAVYYCAADWWRVEMDYWGQGTQVTVSS”, the “polyreactivity (PSR sort gate)” value was “low polyreactivity”.

Take “QVQLVESGGGLVQAGGSLRLSCAASGSTFSRNAMGWYRQAPGKERELVATISRSGRTNYADSVKGRFTISRDNAKNTVYLQMNSLKPEDTAVYYCNAGYRRSYEYWGQGTQVTVSS”: the “polyreactivity (PSR sort gate)” value was “low polyreactivity”.

As to “QVQLVESGGGLVQAGGSLRLSCAASGSTFSRNVMGWYRQAPGKERELVAAISRGGSTNYADSVKGRFTISRENAKNTVYLQMNSLKPEDTAVYYCNAPRLGKFYYWGQGTQVTVSS”, the “polyreactivity (PSR sort gate)” value is “low polyreactivity”.

As for “QVQLVESGGGLVQAGGSLRLSCAASGSTFSRYAMGSYRQAPGKERELVAAITGTGGRTYYADSVKGRFTISRDNAKNTVYLQMNSLKPEDTAVYYCAAQRWTVKYNYWGQGTQVTVSS”, the “polyreactivity (PSR sort gate)” value is listed as “high polyreactivity”.

Consider “QVQLVESGGGLVQAGGSLRLSCAASGSTFSRYAMGWYRHAPGKERELVAAISSSGGGTYYADSVKGRFTISRDTAKNTVFFQMNSLKPEDTAVYYCAKSYRRRQGYYYWGQGTQVTVSS”, for which the “polyreactivity (PSR sort gate)” value is given as “high polyreactivity”.

“QVQLVESGGGLVQAGGSLRLSCAASGSTFSRYAMGWYRQAPGKERELVAAISQGGGRTYYADSVKGRFTISRDNAKNTVYLQMNSLKPEDTAVYYCAAREYYRKPYDHWGQGTQVTVSS”: the “polyreactivity (PSR sort gate)” value is reported as “high polyreactivity”.

“QVQLVESGGGLVQAGGSLRLSCAASGSTFSRYAMGWYRQAPGKERELVAAISSSGGGTYYADSVKGRFTISRDNAKNTVYLQMNSLKPEDTAVYYCAAKRVHGATGYWGQGTQVTVSS”: the “polyreactivity (PSR sort gate)” value is listed as “high polyreactivity”.

As for “QVQLVESGGGLVQAGGSLRLSCAASGSTFSRYAMRWYRQAPGKEMELVAAISSRGGSTYYADSVKGRFTISRDNAMNTVYLQMNSLKPEDTAFYYCAVKSYRLTGRGYWGQGTQVTVSS”, the “polyreactivity (PSR sort gate)” value is on record as “high polyreactivity”.

“QVQLVESGGGLVQAGGSLRLSCAASGSTFSRYTMGWSRQAPGKERELVAAISYRGGSTYYADSVKGRFTISRDNAKNTVYLQMNSLKPEDTAVYYCAADAEGSASKYDYWGQGTQVTVSS”: the “polyreactivity (PSR sort gate)” value was “low polyreactivity”.

Regarding “QVQLVESGGGLVQAGGSLRLSCAASGSTFSRYVMGWYRQAPGKERELVAAISSTGGSTYYADSVKGRFTISRDNAKNTVYLQMNSLKPEDTAVYYCNTTYSYGVAAARYYYWGQGTQVTVSS”, the “polyreactivity (PSR sort gate)” value was “high polyreactivity”.

On to “QVQLVESGGGLVQAGGSLRLSCAASGSTFSRYVMVWYRQAPGKERELVAAISRSGSTYYADSVKGRFTISRDNAMNTVYLQMNSLKPEDTAVYYFDATGSKSAGYGYWGQGTQVTVSS”, for which the “polyreactivity (PSR sort gate)” value is “high polyreactivity”.

With “QVQLVESGGGLVQAGGSLRLSCAASGSTFSSNAMGWYRQAPGKEREFVAGISRSGGSTYYADSVKGRFTISRDNAKNTVYLQMNSLKPEDTAVYYCAARGGPGFKFGYWGQGTQVTVSS”, the “polyreactivity (PSR sort gate)” value is “high polyreactivity”.

As to “QVQLVESGGGLVQAGGSLRLSCAASGSTFSSNAMGWYRQAPGKERELVAAINRTGNTYYADSVKGRFTISRDNAKNTVYLQMNSLKPEDTAVYYCNTDLNLYRGGGYWGQGTQVTVSS”, the “polyreactivity (PSR sort gate)” value is reported as “low polyreactivity”.

Consider “QVQLVESGGGLVQAGGSLRLSCAASGSTFSSYAMGWYRQAPGKEREFVAAISRSGVRTYYADSVKGRFTISRDNAKNSVYLQMNSLNPEDTVVYYCAAVSSLSYSFPYDYWGQGTQVTVSS”, for which the “polyreactivity (PSR sort gate)” value is reported as “high polyreactivity”.

With “QVQLVESGGGLVQAGGSLRLSCAASGSTFSSYAMGWYRQAPGKERELVAAITSSGGSTYYADSVKGRFTISRDNAKNTVYLQMNSLKPEDTAVYYCAAADVIFWLYYYWGQGTQVTVSS”, the “polyreactivity (PSR sort gate)” value is “low polyreactivity”.

With “QVQLVESGGGLVQAGGSLRLSCAASGSTFSSYAMGWYRQAPGKERELVARITSGGSTYYADSVKGRFTISRDNAKNTVYSQMNSLKPEDTAVYYCAARGYYYRSRVSQFKYDYWGQGTQVTVSS”, the “polyreactivity (PSR sort gate)” value is listed as “high polyreactivity”.

Turning to “QVQLVESGGGLVQAGGSLRLSCAASGSTFSTNAMGWYRQAPGKERDLVAAISRSGGSTYYADTVKRRFTISRDIAKITVYLQMNSLKPEVSAVYYCARYSYRGTNVSYDYWGQGTQVTVSS”, the “polyreactivity (PSR sort gate)” value is on record as “high polyreactivity”.

Take “QVQLVESGGGLVQAGGSLRLSCAASGSTFSTNAMGWYRQAPGKERELVAAISYSGGSTYYADSVKGRFTISRDNAKNTVYLQMISLKPEDTAVYYCAADGYYYNSGGRYYEFYYWGQGTQVTVSS”: the “polyreactivity (PSR sort gate)” value is “low polyreactivity”.

Consider “QVQLVESGGGLVQAGGSLRLSCAASGSTFSTYAMGSYRQAPGKERELVATISKRGGSTYYADSVKGRFTISRDNAKNTVYLQMNSLKPEDTAVYYCATPRYRYYTIYDYGYWGQGTQVTVSS”, for which the “polyreactivity (PSR sort gate)” value is “high polyreactivity”.

For the sequence “QVQLVESGGGLVQAGGSLRLSCAASGSTFSTYAMGWYRQAPGKERELVAAIRSGGSTYYADSVKGRFTISRDNAKNTVYLQMNSLKPEDTAVYYCAAKPRNYSYRYYYWGQGTQVTVSS”, the “polyreactivity (PSR sort gate)” value is reported as “high polyreactivity”.

Regarding “QVQLVESGGGLVQAGGSLRLSCAASGSTFSVNAMGWYRQAPGKEREMVAAISSTGSTKYADSVKGRFTISRDNAKNTVYLQMNSLKPEDTAVYCAASNADYEYDPFSVWYFSPYDYWGQGTQVTVSS”, the “polyreactivity (PSR sort gate)” value is listed as “low polyreactivity”.

For “QVQLVESGGGLVQAGGSLRLSCAASGSTFSVYAMGWYRQAPGKEMELVATITWNGGRTYYADSVKGRFTISRDNAKNTVYLQMNSLKPEDTAVYYCASPWLKPGNGIYGGYGYWGQGTQVTVSS”, the “polyreactivity (PSR sort gate)” value is recorded as “high polyreactivity”.

Regarding “QVQLVESGGGLVQAGGSLRLSCAASGSTFSVYAMGWYRQAPGKERELVADITRGGSTYADSVKGRFTISRDNAKNTVYLQMNSLKPEDTAVYYCAREEVTPYPLYWSTREYDYWGQGTQVTVSS”, the “polyreactivity (PSR sort gate)” value is “low polyreactivity”.

With “QVQLVESGGGLVQAGGSLRLSCAASGSTFSVYAMGWYRQAPGKERELVATIRGRGGSTSYADSVKGRFTISRDNAKNTVYLQMNSLKPEDTAVYYCAARVVRDWASKRIILALSNYDYWGQGTQVTVSS”, the “polyreactivity (PSR sort gate)” value is “high polyreactivity”.

As to “QVQLVESGGGLVQAGGSLRLSCAASGSTFSWYAMGWYRQAPGKERELVAAISSGGSTNYADSVKGRFTISRDNAKNTVYLQMNSMKPEDTAVYYCAAVWSRFLISYSTGWWFEYWGQGTKVTVSS”, the “polyreactivity (PSR sort gate)” value is on record as “low polyreactivity”.
